Reference: paper PMC7311433, “Two novel fish paralogs provide insights into the Rid family of imine deaminases active in pre-empting enamine/imine metabolic damage” (Scientific Reports, 2020)
Values belong to the molecule of their own block, whether it stands above or below them.

What was measured:
[1] = biological target: Salmo salar RidA-1 (Salmo salar); test: SEC-MALS; 200 uL of 1 mg/mL protein on Superdex 75 10/300 GL in physiological saline (0.9% w/v NaCl), 0.5 mL/min, mobile phase pH 5.8; MALS and DLS detection
[2] = biological target: Salmo salar RidA-1 (Salmo salar); test: crystal structure; sitting drop at 20 °C, protein 7.5 mg/mL in 154 mM NaCl; SsRidA-1 from 0.2 M NaCl, 0.1 M sodium acetate pH 5.0, 20% PEG 6000; SsRidA-2 from 0.1 M ammonium sulfate, 0.1 M sodium acetate, 25% PEG 4000; data at 100 K
[3] = biological target: Salmo salar RidA-1 (Salmo salar); test: native MS; ESI mass spectra of 0.5 mg/mL protein in 10 mM ammonium formate; SsRidA-2 also after ultrafiltration on 30 kDa-cutoff membranes (retentate)
[4] = biological target: Salmo salar RidA-2 (Salmo salar); test: SEC-MALS; 200 uL of 1 mg/mL protein on Superdex 75 10/300 GL in physiological saline (0.9% w/v NaCl), 0.5 mL/min, mobile phase pH 5.8; MALS and DLS detection
[5] = biological target: Salmo salar RidA-2 (Salmo salar); test: crystal structure; sitting drop at 20 °C, protein 7.5 mg/mL in 154 mM NaCl; SsRidA-1 from 0.2 M NaCl, 0.1 M sodium acetate pH 5.0, 20% PEG 6000; SsRidA-2 from 0.1 M ammonium sulfate, 0.1 M sodium acetate, 25% PEG 4000; data at 100 K
[6] = biological target: Salmo salar RidA-2 (Salmo salar); test: native MS; ESI mass spectra of 0.5 mg/mL protein in 10 mM ammonium formate; SsRidA-2 also after ultrafiltration on 30 kDa-cutoff membranes (retentate)
[7] = biological target: the molecule itself; test: SEC-MALS; 200 uL of 1 mg/mL protein on Superdex 75 10/300 GL in physiological saline (0.9% w/v NaCl), 0.5 mL/min, mobile phase pH 5.8; MALS and DLS detection

stoichiometry N [1]: 3
stoichiometry N [2]: 3
stoichiometry N [3]: 3
Molecule: Salmo salar RidA-1 (enzyme)

stoichiometry N [4]: 3
stoichiometry N [5]: 3
stoichiometry N [6]: 3
Molecule: Salmo salar RidA-2 (enzyme)

B1: goat RidA (UK114) (enzyme, goat (Capra hircus))
chain: SSLVRRIISTAKAPAAIGPYSQAVLVDRTIYISGQLGMDPASGQLVPGGVVEEAKQALTNIGEILKAAGCDFTNVVKATVLLADINDFSAVNDVYKQYFQSSFPARAAYQVAALPKGGRVEIEAIAVQGPLTTASL
notes: also called ChRidA; goat UK114
stoichiometry N [7]: 3
